The results in this text go back to patent US7795009.

This series relates to prothrombin.

Regarding Factor Xa, the “sensitized acceptor emission of the thrombin beacon as a function of time” value was “This conversion resulted in a time-dependent increase of beacon signal”.
